Test results published in publication PMC2965686.

Experiments:
Assay in all cases: FRET or BRET
[1] = target: Mpc54-YFP (S. cerevisiae) (UniProt Q08550)
[2] = target: Spo21-YFP (S. cerevisiae) (UniProt Q12411)
[3] = target: YFP-Cnm67 (S. cerevisiae) (UniProt P53865)
[4] = target: YFP-Spo21 (S. cerevisiae) (UniProt Q12411)

Sequence of UniProt P53865 (P53865 whole entry): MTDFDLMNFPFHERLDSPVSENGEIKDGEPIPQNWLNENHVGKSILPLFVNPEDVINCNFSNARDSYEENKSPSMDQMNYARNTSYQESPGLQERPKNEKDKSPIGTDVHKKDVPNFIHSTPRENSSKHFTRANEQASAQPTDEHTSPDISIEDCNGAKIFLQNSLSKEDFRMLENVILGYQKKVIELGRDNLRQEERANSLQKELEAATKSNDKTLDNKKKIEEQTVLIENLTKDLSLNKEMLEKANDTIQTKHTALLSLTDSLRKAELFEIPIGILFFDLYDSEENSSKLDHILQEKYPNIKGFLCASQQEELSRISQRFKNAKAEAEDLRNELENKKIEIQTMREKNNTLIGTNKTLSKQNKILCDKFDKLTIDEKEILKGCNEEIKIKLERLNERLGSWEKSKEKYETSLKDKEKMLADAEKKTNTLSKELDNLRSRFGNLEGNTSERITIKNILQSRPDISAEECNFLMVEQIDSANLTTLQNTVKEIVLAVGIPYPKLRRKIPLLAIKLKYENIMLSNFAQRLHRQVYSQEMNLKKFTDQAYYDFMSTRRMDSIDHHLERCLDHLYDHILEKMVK
Sequence of UniProt Q08550 (Q08550 whole entry): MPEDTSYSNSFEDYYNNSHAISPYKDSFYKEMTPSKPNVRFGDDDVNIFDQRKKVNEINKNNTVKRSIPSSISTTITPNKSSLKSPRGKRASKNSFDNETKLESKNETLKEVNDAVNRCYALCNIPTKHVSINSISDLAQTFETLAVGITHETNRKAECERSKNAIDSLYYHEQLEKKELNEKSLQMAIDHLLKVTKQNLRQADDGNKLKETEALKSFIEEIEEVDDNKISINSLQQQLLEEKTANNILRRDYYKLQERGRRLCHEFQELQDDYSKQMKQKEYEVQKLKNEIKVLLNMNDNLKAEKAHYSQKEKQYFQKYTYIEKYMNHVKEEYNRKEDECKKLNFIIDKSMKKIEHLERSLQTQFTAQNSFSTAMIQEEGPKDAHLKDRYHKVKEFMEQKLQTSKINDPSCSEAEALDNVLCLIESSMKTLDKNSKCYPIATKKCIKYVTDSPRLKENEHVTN

FretR [1]	FretR [2]	FretR [3]	FretR [4]	Substance
1.24	1.34	1.47	–	Spo21-CFP (from UniProt Q12411 1-609) (natural protein)
–	–	–	1.23	CFP-Mpc54 (from UniProt Q08550 1-464) (natural protein)
1.26	–	1.35	–	Mpc54-CFP (from UniProt Q08550 1-464) (natural protein)
